Literature values, collected in publication PMC2945288.

Target: coat protein (procapsid) (Salmonella phage P22) (UniProt P26747)
UniProt P26747, sequence (P26747 2-430): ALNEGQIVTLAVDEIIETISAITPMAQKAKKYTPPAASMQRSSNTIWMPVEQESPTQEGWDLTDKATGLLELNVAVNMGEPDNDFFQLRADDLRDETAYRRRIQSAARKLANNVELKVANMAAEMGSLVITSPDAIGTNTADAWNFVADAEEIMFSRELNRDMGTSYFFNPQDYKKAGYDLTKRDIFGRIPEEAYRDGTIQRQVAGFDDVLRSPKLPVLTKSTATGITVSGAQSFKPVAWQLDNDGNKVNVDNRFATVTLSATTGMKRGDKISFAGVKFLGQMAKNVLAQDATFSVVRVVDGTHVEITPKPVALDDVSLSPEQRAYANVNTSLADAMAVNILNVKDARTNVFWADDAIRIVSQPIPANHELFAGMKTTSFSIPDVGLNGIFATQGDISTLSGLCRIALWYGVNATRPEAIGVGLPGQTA

In the case of “scaffolding protein (loosely bound) (from UniProt P26748)”, the Kd is given as 28 µM.
